The source of these data is US20170275350A1 (Scripps Research, published 2017).

The subject of series [1] is Synthetic PAR1 N-terminal peptide TR33-62.
Series [2] has as its target Protease activated receptor-1 (PAR1), endogenous on EA.hy.926 endothelial cells (human) (UniProt P25116). Briefly: cell-based or functional assay.
The target of series [3] is T1, Protease activated receptor-1 (PAR1), endogenous on EA.hy.926 endothelial cells (human, UniProt P25116 42-425).
T1 sequence: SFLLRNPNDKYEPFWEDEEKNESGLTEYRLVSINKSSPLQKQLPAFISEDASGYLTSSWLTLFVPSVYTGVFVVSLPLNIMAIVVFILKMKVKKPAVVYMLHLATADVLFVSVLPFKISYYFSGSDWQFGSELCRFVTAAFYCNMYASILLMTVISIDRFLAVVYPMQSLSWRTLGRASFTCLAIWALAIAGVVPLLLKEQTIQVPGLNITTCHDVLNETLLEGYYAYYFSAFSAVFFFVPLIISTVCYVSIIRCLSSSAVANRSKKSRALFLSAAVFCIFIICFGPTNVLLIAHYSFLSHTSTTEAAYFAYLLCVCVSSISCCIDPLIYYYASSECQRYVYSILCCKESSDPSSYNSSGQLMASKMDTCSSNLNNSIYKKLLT
Briefly: cell-based or functional assay.

Sequence of Synthetic PAR1 N-terminal peptide TR33-62 (chain, as listed by the source): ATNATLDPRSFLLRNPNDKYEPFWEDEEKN

With Thrombin, the “cleavage of the peptide (reverse phase HPLC, MALDI-TOF of fragments)” value in series [1] was “the two fragments produced by thrombin (peaks A and D) corresponded to masses of 1,001 and 2,670 for cleavage at Arg^41”. As to “Activated Protein C (from UniProt P04070 43-461) (enzyme)”, in series [2], the ERK1/2 phosphorylation in EA.hy.926 cells (immunoblot, ratio to total ERK1/2) was 1.5 fold and the decrease of ATAP2 signal relative to WEDE15, on cell Western stood at 50%.

For the molecule Activated Protein C, the “cleavage of the peptide (reverse phase HPLC, MALDI-TOF of fragments)” value in series [1] was “APC cleaves this PAR1 peptide at Arg^46 as well as at Arg^41”.

B1: TFLL peptide (TR42-51 with S42T) (peptide)
peptide: TFLLRNPNDK
Regarding B1, the “ERK1/2 phosphorylation in EA.hy.926 cells (immunoblot, ratio to total ERK1/2)” value in series [3] worked out at 3 fold.

B2: PAR1 peptide TR47-66 (peptide)
peptide: NPNDKYEPFWEDEEKNESGL
As to B2, the “ERK1/2 phosphorylation in EA.hy.926 cells (immunoblot, ratio to total ERK1/2)” value in series [3] turned out to be 1.5 fold.
